B1: E-cadherin (mouse, endogenous, liver lysate) (other, UniProt P09803 157-884, looked up)
chain: DWVIPPISCPENEKGEFPKNLVQIKSNRDKETKVFYSITGQGADKPPVGVFIIERETGWLKVTQPLDREAIAKYILYSHAVSSNGEAVEDPMEIVITVTDQNDNRPEFTQEVFEGSVAEGAVPGTSVMKVSATDADDDVNTYNAAIAYTIVSQDPELPHKNMFTVNRDTGVISVLTSGLDRESYPTYTLVVQAADLQGEGLSTTAKAVITVKDINDNAPVFNPSTYQGQVPENEVNARIATLKVTDDDAPNTPAWKAVYTVVNDPDQQFVVVTDPTTNDGILKTAKGLDFEAKQQYILHVRVENEEPFEGSLVPSTATVTVDVVDVNEAPIFMPAERRVEVPEDFGVGQEITSYTAREPDTFMDQKITYRIWRDTANWLEINPETGAIFTRAEMDREDAEHVKNSTYVALIIATDDGSPIATGTGTLLLVLLDVNDNAPIPEPRNMQFCQRNPQPHIITILDPDLPPNTSPFTAELTHGASVNWTIEYNDAAQESLILQPRKDLEIGEYKIHLKLADNQNKDQVTTLDVHVCDCEGTVNNCMKAGIVAAGLQVPAILGILGGILALLILILLLLLFLRRRTVVKEPLLPPDDDTRDNVYYYDEEGGGEEDQDFDLSQLHRGLDARPEVTRNDVAPTLMSVPQYRPRPANPDEIGNFIDENLKAADSDPTAPPYDSLLVFDYEGSGSEAASLSSLNSSESDQDQDYDYLNEWGNRFKKLADMYGGGEDD
B2: human IQGAP2 (cDNA, transiently expressed in COS1 cells) (other, UniProt Q13576 1-1575, looked up)
chain: MPHEELPSLQRPRYGSIVDDERLSAEEMDERRRQNIAYEYLCHLEEAKRWMEVCLVEELPPTTELEEGLRNGVYLAKLAKFFAPKMVSEKKIYDVEQTRYKKSGLHFRHTDNTVQWLRAMESIGLPKIFYPETTDVYDRKNIPRMIYCIHALSLYLFKLGIAPQIQDLLGKVDFTEEEISNMRKELEKYGIQMPSFSKIGGILANELSVDEAALHAAVIAINEAVEKGIAEQTVVTLRNPNAVLTLVDDNLAPEYQKELWDAKKKKEENARLKNSCISEEERDAYEELLTQAEIQGNINKVNRQAAVDHINAVIPEGDPENTLLALKKPEAQLPAVYPFAAAMYQNELFNLQKQNTMNYLAHEELLIAVEMLSAVALLNQALESNDLVSVQNQLRSPAIGLNNLDKAYVERYANTLLSVKLEVLSQGQDNLSWNEIQNCIDMVNAQIQEENDRVVAVGYINEAIDEGNPLRTLETLLLPTANISDVDPAHAQHYQDVLYHAKSQKLGDSESVSKVLWLDEIQQAVDDANVDKDRAKQWVTLVVDVNQCLEGKKSSDILSVLKSSTSNANDIIPECADKYYDALVKAKELKSERVSSDGSWLKLNLHKKYDYYYNTDSKESSWVTPESCLYKESWLTGKEIEDIIEEVTVGYIRENIWSASEELLLRFQATSSGPILREEFEARKSFLHEQEENVVKIQAFWKGYKQRKEYMHRRQTFIDNTDSIVKIQSWFRMATARKSYLSRLQYFRDHNNEIVKIQSLLRANKARDDYKTLVGSENPPLTVIRKFVYLLDQSDLDFQEELEVARLREEVVTKIRANQQLEKDLNLMDIKIGLLVKNRITLEDVISHSKKLNKKKGGEMEILNNTDNQGIKSLSKERRKTLETYQQLFYLLQTNPLYLAKLIFQMPQNKSTKFMDTVIFTLYNYASNQREEYLLLKLFKTALEEEIKSKVDQVQDIVTGNPTVIKMVVSFNRGARGQNTLRQLLAPVVKEIIDDKSLIINTNPVEVYKAWVNQLETQTGEASKLPYDVTTEQALTYPEVKNKLEASIENLRRVTDKVLNSIISSLDLLPYGLRYIAKVLKNSIHEKFPDATEDELLKIVGNLLYYRYMNPAIVAPDGFDIIDMTAGGQINSDQRRNLGSVAKVLQHAASNKLFEGENEHLSSMNNYLSETYQEFRKYFKEACNVPEPEEKFNMDKYTDLVTVSKPVIYISIEEIISTHSLLLEHQDAIAPEKNDLLSELLGSLGEVPTVESFLGEGAVDPNDPNKANTLSQLSKTEISLVLTSKYDIEDGEAIDSRSLMIKTKKLIIDVIRNQPGNTLTEILETPATAQQEVDHATDMVSRAMIDSRTPEEMKHSQSMIEDAQLPLEQKKRKIQRNLRTLEQTGHVSSENKYQDILNEIAKDIRNQRIYRKLRKAELAKLQQTLNALNKKAAFYEEQINYYDTYIKTCLDNLKRKNTRRSIKLDGKGEPKGAKRAKPVKYTAAKLHEKGVLLDIDDLQTNQFKNVTFDIIATEDVGIFDVRSKFLGVEMEKVQLNIQDLLQMQYEGVAVMKMFDKVKVNVNLLIYLLNKKFYGK
B3: IQGAP2 (mouse, endogenous, liver lysate) (other, UniProt Q3UQ44 1-1575, looked up)
chain: MPHEELPSLQRPRYGSIVDDERLSAEEMDERRRQNIAYEYLCHLEEAKRWMEVCLVEELPPTTELEEGLRNGVYLAKLAKFFAPKMVSEKKIYDVEQTRYKKSGLHFRHTDNTVQWLRAMEAIGLPKIFYPETTDVYDRKNIPRMIYCIHALSLYLFKLGIAPQIQDLLGKVDFTEEEISNMRKELEKYGIQMPAFSKIGGILANELSVDEAALHAAVIAINEAIEKGVAKQTIITLRNPNAVLTCVDDSLSQEYQKELWEAKKKKEESAKLKNSCISEEERDAYEELLTQAEIQSNISTVNRMAAVDHINAVLQEGDPENTLLALKKPEAQLPAVYPFAAVMYQNELFNLQKQNTSNYLAHEELLIAVEMLSAVALLNQALESSDLVAVQNQLRSPTIGFNNLDEAHVDRYADALLSVKQEALSQGQDTLSWNEIQNCIDMINNQIQEENDRMVVLGYINEAIDAGNPLKTLDTLLLPTANIRDVDPDCAQHYQDVLFYTKSQKLGDPKNVSKVLWLDEIQQAINEANVDENRAKQWVTLVVDVNECLDRKQSDHILTALKSSPSNIHNILPECANKYYDTLVKAKESKTDNESSEGSWVTLNVQEKYNYYYNTDSKEGSWVPPELCLSKESWLTGEEIEDIVEEVTSDYIREKLWSASEDLLVRFEATTLGPALREEFEARKAFLYEQTESVVKIQAFWKGFKQRQEYLHRQQVFAGNVDSVVKIQSWFRMVTARKSYLSRLRYFEDHKNEIVKIQSLLRASKARDDYKALVGSENPPLTVIRKFVYLLDQSDLDFQEELEVARLREEVVTKIRANQQLEKDLNLMDIKIGLLVKNRITLEDVISHRKKLNKKKGGEIEILNNTDNKGIKSLSKERRKTLETYQQLFYLLQTKPSYLAKLIFQMPQNKSTKFMDTVIFTLYNYASNQREEYLLLKLFKTALEEEIKSKVDQVQDIVTGNPTVIKMVVSFNRGARGQNTLRQLLAPVVKEIIEDKALVINTNPVEVYKAWVNQLETQTGEASKLPYDVTTEQALTYPEVKNKLEASIENLRKVTDKVLGSIISSLDLLPYGLRYIAKVLKNSIREKFPDATEEELLKIVGNLLYYRYMNPAIVAPDGFDIIDMTAGGQINSNQRRNLGSVAKVLQHAASNKLFEGENEHLSSMNNYLSETYQEFRKYFQEACDVPEPEEKFNMDKYTDLVTVSKPVIYISIEEIINTHLLLLEHQDAIATEKSDLLNELLESLGEVPTVESFLGEGAVDPNDPNKENTLNQLSKTEISLSLTSKYDVKDGEAVDGRSLMIKTKKLIIDVTRNQPGSTLTEILETPATGQQELEHAKDMESRAVVDSRTPEEGKQSQAVIEDARLPLEQKKRKIQRNLRTLEQTGHVSSKNKYQDILNEIAKDIRNQRIHRKLRKAELSKLQQTLNALNKKAAFYEDQINYYDTYIKTCVDNLKRKNSRRSIKLDGKAEPKGTKRVKPVRYTAAKLHDKGVLLGIDDLQTNQFKNVMFDIIATEDMGIFDVRSKFLGVEMEKVQLNIQDLLQMQYEGVAVMKMFDKVKVNVNLLIYLLNKKFYGK

Experiments:
[1] = target: B3; assay: co-immunoprecipitation from mouse whole-liver lysates, immunoblot detection
Protocol: (§1) To further probe the relationships between IQGAP1, IQGAP2, β-catenin, and E-cadherin, a series of immunoprecipitation experiments were conducted using whole-liver lysates from Iqgap1^{-/-}, Iqgap2^{-/-}, and wildtype mice. […] In contrast, there was no evidence for specific interaction between E-cadherin and IQGAP2 in either E-cadherin- or IQGAP2-specific immunoprecipitations. […] Using normal hepatocytes, however, neither IQGAP1- nor IQGAP2-specific pull-down assays coprecipitated the corresponding homologous protein. Transient transfections of […] (which endogenously express IQGAP1) were subsequently used as an in vitro model system to specifically address the existence of putative IQGAP1-IQGAP2 heterodimers. As evident in FIG. 15B, IQGAP1 or IQGAP2 were not pulled down by reciprocal immunoprecipitations. Thus, while IQGAP1 and IQGAP2 are normally found as components of a broader quarternary scaffolding complex in hepatocytes, there appears to be no evidence that their presence within this scaffold occurs via direct (heterodimeric) interactions.
(§2) Immunoprecipitation experiments were completed using freshly isolated murine livers essentially as described previously (Schmidt, V. A., et al. 2003. Blood 101:3021-3028). In brief, intact livers were homogenized in 25 mM HEPES-0.15 M NaCl buffer, pH 7.45, supplemented with 0.1% Triton X-100 and standard protease inhibitors. […]

[2] = target: human IQGAP1 (full-length cDNA, transiently expressed in COS1 cells) (human, UniProt P46940 2-1657); assay: reciprocal co-immunoprecipitation from lysates of transiently transfected COS1 cells, immunoblot detection
Protocol: as §1, §2

[3] = target: IQGAP1 (mouse, endogenous, liver lysate) (mouse, UniProt Q9JKF1 2-1657); assay: reciprocal co-immunoprecipitation from normal mouse hepatocyte/liver lysates, immunoblot detection
Protocol: as §1, §2

Sequence of IQGAP1 (mouse, endogenous, liver lysate) (Q9JKF1 2-1657 limits assumed): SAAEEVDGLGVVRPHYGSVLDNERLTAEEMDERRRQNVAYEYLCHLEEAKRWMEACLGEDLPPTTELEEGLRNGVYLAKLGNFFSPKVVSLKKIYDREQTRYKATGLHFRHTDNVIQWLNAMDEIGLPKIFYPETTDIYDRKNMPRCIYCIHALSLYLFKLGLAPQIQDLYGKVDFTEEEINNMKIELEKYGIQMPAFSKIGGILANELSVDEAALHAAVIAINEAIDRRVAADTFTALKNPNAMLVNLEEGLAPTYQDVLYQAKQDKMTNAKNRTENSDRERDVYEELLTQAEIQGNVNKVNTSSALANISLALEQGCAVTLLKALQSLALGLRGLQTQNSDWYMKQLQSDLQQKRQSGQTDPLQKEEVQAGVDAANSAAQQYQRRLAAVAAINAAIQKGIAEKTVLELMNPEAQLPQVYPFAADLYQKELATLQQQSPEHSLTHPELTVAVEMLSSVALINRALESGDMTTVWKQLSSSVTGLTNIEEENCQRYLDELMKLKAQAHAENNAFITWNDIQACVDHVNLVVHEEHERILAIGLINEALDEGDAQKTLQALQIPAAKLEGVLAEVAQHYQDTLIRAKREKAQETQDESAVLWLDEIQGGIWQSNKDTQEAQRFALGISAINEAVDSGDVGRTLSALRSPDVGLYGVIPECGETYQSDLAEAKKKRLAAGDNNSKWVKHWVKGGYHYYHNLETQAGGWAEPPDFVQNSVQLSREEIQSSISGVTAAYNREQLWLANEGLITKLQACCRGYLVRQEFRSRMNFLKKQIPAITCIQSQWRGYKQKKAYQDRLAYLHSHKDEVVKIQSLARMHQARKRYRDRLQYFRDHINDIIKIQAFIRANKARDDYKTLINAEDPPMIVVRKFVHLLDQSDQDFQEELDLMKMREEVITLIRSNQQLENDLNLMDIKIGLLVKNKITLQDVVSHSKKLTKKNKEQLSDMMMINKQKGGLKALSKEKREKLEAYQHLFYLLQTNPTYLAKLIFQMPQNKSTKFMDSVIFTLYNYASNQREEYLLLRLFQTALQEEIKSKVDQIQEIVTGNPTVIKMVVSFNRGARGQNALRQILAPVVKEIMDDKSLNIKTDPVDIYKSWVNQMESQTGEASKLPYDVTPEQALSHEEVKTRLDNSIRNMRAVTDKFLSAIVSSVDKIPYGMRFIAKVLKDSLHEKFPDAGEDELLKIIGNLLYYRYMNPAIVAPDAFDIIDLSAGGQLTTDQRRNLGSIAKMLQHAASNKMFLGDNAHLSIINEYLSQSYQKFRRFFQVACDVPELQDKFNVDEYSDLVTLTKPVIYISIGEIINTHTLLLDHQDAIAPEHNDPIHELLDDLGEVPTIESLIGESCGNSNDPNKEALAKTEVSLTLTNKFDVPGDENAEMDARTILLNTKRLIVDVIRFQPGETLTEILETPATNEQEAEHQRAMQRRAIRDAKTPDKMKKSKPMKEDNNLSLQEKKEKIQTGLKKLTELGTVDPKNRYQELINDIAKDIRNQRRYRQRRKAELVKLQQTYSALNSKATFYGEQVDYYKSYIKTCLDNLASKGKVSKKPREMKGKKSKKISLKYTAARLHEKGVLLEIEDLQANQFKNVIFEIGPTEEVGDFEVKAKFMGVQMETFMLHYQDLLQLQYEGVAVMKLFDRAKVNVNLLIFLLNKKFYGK
Sequence of human IQGAP1 (full-length cDNA, transiently expressed in COS1 cells) (P46940 2-1657 limits assumed): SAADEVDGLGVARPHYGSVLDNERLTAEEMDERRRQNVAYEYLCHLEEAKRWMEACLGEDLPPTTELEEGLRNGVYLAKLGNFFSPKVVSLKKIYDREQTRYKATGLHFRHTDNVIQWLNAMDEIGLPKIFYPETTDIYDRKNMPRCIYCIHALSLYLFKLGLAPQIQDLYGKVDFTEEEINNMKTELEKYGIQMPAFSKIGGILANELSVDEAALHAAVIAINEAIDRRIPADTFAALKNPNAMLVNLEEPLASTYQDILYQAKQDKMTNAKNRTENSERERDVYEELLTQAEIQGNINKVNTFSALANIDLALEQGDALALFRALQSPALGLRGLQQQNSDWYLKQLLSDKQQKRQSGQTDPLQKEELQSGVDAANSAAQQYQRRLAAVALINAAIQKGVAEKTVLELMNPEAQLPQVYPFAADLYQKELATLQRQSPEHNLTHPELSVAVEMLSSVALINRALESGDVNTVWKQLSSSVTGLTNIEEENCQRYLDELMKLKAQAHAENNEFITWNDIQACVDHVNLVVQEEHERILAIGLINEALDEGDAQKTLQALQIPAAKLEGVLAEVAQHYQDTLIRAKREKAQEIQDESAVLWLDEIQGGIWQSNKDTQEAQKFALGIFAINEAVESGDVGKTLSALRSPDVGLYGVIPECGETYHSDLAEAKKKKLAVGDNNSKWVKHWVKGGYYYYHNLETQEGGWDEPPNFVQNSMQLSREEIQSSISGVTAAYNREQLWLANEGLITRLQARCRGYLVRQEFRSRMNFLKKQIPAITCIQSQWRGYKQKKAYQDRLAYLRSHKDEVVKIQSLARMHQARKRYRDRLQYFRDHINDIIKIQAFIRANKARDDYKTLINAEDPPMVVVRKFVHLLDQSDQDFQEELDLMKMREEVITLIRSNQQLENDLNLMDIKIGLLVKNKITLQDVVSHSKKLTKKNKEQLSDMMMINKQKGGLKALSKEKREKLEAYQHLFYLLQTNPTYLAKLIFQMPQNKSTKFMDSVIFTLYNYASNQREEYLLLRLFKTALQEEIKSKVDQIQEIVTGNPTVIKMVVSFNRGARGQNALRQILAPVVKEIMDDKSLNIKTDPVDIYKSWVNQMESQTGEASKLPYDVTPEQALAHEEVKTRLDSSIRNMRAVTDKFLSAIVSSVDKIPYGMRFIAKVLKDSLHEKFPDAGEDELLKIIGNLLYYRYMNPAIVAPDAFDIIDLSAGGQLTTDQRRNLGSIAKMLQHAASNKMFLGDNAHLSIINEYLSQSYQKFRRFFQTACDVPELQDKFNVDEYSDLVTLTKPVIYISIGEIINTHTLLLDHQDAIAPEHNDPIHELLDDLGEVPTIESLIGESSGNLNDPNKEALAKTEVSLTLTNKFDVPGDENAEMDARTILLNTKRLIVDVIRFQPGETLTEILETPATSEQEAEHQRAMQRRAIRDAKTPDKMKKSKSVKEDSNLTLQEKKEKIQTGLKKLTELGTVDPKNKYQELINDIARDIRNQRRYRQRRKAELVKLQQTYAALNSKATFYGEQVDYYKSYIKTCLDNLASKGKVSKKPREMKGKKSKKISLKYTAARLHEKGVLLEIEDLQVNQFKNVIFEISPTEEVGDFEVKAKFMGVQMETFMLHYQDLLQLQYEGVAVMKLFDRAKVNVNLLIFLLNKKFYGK

Binder: B1
binding result [1]: no binding

Binder: B2
binding result [2]: no binding

Binder: B3
binding result [3]: no binding

— patent publication US20100169995A1 (RESEARCH FOUNDATION OF STATE UNIVERSITY OF NEW YORK, published 2010)
